The target in test [1] is T1, human transferrin receptor (hTfR) fused to EGFP, on CHO cells (human, UniProt P02786 1-760).
T1 construct: whole, on cells; also called human TfR; CHO-hTfR-EGFP; not shown: EGFP from pEGFP-C1 vector, fused to the N-terminal (intracellular) end of hTfR
Description: flow cytometry on CHO-hTfR-EGFP cells, 1 hr at 4 C, anti-6His + Alexa647 anti-mouse; ratio to background fluorescence.

Test [2] addresses T2, rhesus monkey transferrin receptor (rhTfR) fused to EGFP, on CHO cells (rhesus monkey).
T2 construct: whole, on cells; also called rhesus monkey TfR
Nature of the test: apparent Kd, flow cytometry, CHO cells. The procedure, abridged: (§1)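 CHO cells expressing TfR-EGFP fusions, blocked in PBS/BSA 2%, then incubated with increasing VHH concentrations for 1 hr at 4° C. Bound VHH detected via anti-6His antibody and Alexa647 secondary, cells PFA-fixed, read by flow cytometry. Apparent Kd from nonlinear fit.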
On the technique in general: In flow cytometry, cells or beads pass a laser one at a time.

For test [3], the target named is T3, mouse transferrin receptor (mTfR) fused to EGFP, on CHO cells (mouse, UniProt Q62351 1-763).
T3 construct: whole, on cells; also called mouse TfR; CHO-mTfR-EGFP; not shown: EGFP
Description: apparent Kd, flow cytometry, CHO cells. The procedure, abridged: as §1

Test [4] has as its target T1, human transferrin receptor (hTfR) fused …. Nature of the test: apparent Kd, flow cytometry, CHO cells. The essentials:
as §1

T1 sequence (P02786 whole entry, the tested form may be a part): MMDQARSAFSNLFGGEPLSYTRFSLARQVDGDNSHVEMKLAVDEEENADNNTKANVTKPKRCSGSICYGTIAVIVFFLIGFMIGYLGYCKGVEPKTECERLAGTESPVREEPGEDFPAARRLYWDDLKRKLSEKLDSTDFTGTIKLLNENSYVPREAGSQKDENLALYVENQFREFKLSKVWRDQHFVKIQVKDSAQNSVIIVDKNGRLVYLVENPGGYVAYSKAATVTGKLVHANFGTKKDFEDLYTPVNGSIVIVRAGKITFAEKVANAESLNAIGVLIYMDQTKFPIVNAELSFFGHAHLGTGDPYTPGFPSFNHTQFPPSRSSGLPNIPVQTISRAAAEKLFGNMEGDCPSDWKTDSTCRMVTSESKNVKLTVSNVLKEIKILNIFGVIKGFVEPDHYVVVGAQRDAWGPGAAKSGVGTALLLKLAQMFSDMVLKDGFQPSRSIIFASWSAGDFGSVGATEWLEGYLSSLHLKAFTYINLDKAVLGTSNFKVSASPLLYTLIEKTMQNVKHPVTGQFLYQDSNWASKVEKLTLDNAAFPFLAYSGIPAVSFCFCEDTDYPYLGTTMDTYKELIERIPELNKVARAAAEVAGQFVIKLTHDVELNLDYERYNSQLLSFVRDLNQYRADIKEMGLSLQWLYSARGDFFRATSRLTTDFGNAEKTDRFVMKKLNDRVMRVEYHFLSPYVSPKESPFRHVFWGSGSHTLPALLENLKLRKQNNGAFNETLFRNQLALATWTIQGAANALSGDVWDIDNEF
T3 sequence (Q62351 whole entry, the tested form may be a part): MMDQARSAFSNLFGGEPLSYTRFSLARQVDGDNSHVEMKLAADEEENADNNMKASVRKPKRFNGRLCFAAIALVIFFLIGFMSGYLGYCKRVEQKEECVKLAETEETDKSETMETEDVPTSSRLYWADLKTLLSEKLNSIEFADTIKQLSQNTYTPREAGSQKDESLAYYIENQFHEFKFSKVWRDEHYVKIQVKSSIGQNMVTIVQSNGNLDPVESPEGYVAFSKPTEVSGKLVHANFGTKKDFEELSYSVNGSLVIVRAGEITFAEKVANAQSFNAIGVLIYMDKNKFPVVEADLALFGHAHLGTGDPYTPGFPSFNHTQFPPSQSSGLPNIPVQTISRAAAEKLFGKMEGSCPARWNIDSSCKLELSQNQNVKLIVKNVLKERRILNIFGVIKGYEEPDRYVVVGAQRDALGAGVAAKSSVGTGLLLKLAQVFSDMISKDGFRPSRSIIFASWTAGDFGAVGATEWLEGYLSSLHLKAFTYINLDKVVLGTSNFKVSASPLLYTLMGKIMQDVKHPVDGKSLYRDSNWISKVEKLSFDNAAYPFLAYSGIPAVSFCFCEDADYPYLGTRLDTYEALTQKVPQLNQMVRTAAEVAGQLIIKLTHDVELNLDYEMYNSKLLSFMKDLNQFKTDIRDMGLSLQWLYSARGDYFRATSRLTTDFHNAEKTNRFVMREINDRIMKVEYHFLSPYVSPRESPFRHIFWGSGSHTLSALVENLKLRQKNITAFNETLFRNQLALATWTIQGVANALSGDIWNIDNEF

B1: VHH A (C5) (VHH)
VHH: EVQLVESGGGVVQPGGSLKLSCVASGTDFSINFIRWYRQAPGKQREFVAGFTATGNTNYADSMKGRFTISRDNTKNAVYLQIDSLKPEDTAVYYCYMLDKWGQGTQVTVSS
notes: form with the C-terminal myc-His6 tag (x = 1), since the VHHs were detected with anti-6His or anti-cMyc; the same holds for m12 to m126
B1: in test [1], the EC50 (read off the curve) – broadly, the concentration that produces a half-maximal response – was ~5 nM. The Kd in test [2] is 4.9 nM; in test [3] it was 50 nM; in test [4] it was 2.7 nM.

For the origin of these results see patent US20230414780A1 (VECT HORUS, published 2023).
